Measurements taken from PMC9482650, “Quantitative fragmentomics allow affinity mapping of interactomes” (Nature Communications, 2022).

T1: CARD11, Q9BXL7
T1 sequence (Q9BXL7 662-765, limits assumed, looked up): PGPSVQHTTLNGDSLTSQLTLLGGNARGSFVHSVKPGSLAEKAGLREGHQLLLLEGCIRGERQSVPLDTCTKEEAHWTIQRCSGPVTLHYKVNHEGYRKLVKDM

T2: MPDZ_5, O75970
T2 sequence (O75970 695-796, limits assumed, looked up): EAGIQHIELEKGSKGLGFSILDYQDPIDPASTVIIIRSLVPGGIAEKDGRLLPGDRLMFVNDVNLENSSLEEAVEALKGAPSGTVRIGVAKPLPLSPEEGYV

T3: DLG3_3, Q92796
T3 sequence (Q92796 374-475, limits assumed, looked up): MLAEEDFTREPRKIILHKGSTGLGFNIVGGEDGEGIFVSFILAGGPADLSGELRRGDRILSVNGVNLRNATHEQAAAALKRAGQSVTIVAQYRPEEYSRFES

T4: SYNJ2BP, P57105
T4 sequence (P57105 8-110, limits assumed, looked up): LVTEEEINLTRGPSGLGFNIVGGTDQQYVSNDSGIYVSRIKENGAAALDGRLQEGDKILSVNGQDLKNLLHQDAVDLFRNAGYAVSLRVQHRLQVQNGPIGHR

T5: DLG3_2, Q92796
T5 sequence (Q92796 221-321, limits assumed, looked up): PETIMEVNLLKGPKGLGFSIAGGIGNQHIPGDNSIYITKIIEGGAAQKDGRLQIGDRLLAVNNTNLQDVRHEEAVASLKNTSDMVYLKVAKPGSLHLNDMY

T6: GRIP1_3, Q9Y3R0
T6 sequence (Q9Y3R0 247-346, limits assumed, looked up): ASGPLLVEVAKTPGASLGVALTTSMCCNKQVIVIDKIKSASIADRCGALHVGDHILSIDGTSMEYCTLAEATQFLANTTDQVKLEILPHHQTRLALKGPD

T7: LRRC7, Q96NW7
T7 sequence (Q96NW7 1440-1537, limits assumed, looked up): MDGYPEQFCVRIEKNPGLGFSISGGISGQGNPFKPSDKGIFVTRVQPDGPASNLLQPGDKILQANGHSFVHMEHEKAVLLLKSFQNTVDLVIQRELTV

T8: RADIL, Q96JH8
T8 sequence (Q96JH8 971-1071, limits assumed, looked up): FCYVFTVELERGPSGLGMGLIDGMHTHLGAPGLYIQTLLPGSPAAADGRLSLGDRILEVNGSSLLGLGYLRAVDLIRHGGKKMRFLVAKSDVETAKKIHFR

T9: RHPN1, Q8TCX5
T9 sequence (Q8TCX5 508-602, limits assumed, looked up): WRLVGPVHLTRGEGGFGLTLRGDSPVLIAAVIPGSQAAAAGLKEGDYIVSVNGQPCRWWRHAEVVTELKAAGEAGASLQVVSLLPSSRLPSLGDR

T10: SIPA1L2, Q9P2F8
T10 sequence (Q9P2F8 945-1036, limits assumed, looked up): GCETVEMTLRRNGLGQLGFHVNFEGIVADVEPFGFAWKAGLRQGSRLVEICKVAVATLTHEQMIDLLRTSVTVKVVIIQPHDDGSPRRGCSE

T11: ARHGEF11, O15085
T11 sequence (O15085 42-136, limits assumed, looked up): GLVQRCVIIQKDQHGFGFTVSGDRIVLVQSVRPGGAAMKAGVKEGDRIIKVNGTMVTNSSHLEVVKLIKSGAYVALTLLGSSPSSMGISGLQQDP

T12: MPP7, Q5T2T1
T12 sequence (Q5T2T1 134-230, limits assumed, looked up): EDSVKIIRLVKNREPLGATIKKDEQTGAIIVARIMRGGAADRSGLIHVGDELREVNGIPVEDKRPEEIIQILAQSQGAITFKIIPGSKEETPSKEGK

T13: DFNB31_1, Q9P202
T13 sequence (Q9P202 135-233, limits assumed, looked up): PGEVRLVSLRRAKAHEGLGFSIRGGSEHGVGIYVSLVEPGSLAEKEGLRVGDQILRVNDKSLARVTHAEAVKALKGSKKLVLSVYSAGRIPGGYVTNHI


Tests used:
Assay in all cases: holdup assay
Parameters in all cases: key: below the threshold = too weak to quantify, mostly under pKd 3.1 to 4
Conditions in all cases: plain residues with an end cap or a label only (N-terminal biotin on a linker: ado-ado)
GRIP2_6, Q9C0E4 = target: GRIP2_6, Q9C0E4
FRMPD2_3, Q68DX3 = target: FRMPD2_3, Q68DX3
CARD11, Q9BXL7 = target: T1, CARD11, Q9BXL7
MPDZ_5, O75970 = target: T2, MPDZ_5, O75970
DLG3_3, Q92796 = target: T3, DLG3_3, Q92796
SYNJ2BP, P57105 = target: T4, SYNJ2BP, P57105
Inadl_6, Q8NI35 = target: Inadl_6, Q8NI35
DLG3_2, Q92796 = target: T5, DLG3_2, Q92796
SNX27, Q96L92 = target: SNX27, Q96L92
GRIP1_3, Q9Y3R0 = target: T6, GRIP1_3, Q9Y3R0
MAGI2_2, Q86UL8 = target: MAGI2_2, Q86UL8
LRRC7, Q96NW7 = target: T7, LRRC7, Q96NW7
HTRA1, Q92743 = target: HTRA1, Q92743
ARHGEF12, Q9NZN5-2 = target: ARHGEF12, Q9NZN5-2
RADIL, Q96JH8 = target: T8, RADIL, Q96JH8
RHPN1, Q8TCX5 = target: T9, RHPN1, Q8TCX5
TJP1_3, Q07157 = target: TJP1_3, Q07157
Inadl_1, Q8NI35 = target: Inadl_1, Q8NI35
SIPA1L2, Q9P2F8 = target: T10, SIPA1L2, Q9P2F8
ARHGEF11, O15085 = target: T11, ARHGEF11, O15085
MPP7, Q5T2T1 = target: T12, MPP7, Q5T2T1
DFNB31_1, Q9P202 = target: T13, DFNB31_1, Q9P202
GRIP2_5, Q9C0E4 = target: GRIP2_5, Q9C0E4
NHERF4_2, Q86UT5 = target: NHERF4_2, Q86UT5
NHERF4_2, Q86UT5, sequence (Q86UT5 220-308): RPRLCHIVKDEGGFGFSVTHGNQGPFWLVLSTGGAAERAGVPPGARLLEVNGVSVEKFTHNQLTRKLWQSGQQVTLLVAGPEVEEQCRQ

GRIP2_6, Q9C0E4, sequence (Q9C0E4 648-740): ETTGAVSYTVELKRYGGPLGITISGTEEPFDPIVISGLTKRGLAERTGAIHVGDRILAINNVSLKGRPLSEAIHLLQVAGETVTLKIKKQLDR
FRMPD2_3, Q68DX3, sequence (Q68DX3 1073-1166): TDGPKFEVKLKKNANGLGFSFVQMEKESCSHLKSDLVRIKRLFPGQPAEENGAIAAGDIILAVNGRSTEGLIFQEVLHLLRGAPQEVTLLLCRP
Inadl_1, Q8NI35, sequence (Q8NI35 113-229): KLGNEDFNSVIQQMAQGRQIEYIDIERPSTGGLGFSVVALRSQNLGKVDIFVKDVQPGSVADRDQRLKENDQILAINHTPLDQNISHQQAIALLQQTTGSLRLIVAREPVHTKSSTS
MAGI2_2, Q86UL8, sequence (Q86UL8 410-522): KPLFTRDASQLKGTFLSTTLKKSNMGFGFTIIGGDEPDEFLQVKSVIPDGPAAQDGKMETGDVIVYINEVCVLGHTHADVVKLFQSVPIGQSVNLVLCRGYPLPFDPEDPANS
Inadl_6, Q8NI35, sequence (Q8NI35 1058-1167): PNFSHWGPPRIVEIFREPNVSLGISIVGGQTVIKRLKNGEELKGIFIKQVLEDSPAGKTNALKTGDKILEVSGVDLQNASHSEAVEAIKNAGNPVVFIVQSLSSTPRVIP
GRIP2_5, Q9C0E4, sequence (Q9C0E4 544-642): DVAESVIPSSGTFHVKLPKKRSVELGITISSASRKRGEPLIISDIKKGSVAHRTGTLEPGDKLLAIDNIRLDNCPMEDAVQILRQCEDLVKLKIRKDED
HTRA1, Q92743, sequence (Q92743 360-477): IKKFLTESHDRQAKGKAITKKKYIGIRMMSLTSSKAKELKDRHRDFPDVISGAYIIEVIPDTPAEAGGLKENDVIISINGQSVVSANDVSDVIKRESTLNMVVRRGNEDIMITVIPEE
TJP1_3, Q07157, sequence (Q07157 416-512): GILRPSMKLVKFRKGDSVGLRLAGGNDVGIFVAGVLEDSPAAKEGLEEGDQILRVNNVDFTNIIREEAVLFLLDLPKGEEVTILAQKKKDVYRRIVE
ARHGEF12, Q9NZN5-2, sequence (Q9NZN5 other isoform, or with tags, fused parts or gaps): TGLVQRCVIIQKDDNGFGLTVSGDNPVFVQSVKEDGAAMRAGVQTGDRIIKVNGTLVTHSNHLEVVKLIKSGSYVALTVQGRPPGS

Row | pKd (GRIP2_6, Q9C0E4) | pKd (FRMPD2_3, Q68DX3) | pKd (CARD11, Q9BXL7) | pKd (MPDZ_5, O75970) | pKd (DLG3_3, Q92796) | pKd (SYNJ2BP, P57105) | pKd (Inadl_6, Q8NI35) | pKd (DLG3_2, Q92796) | pKd (SNX27, Q96L92) | pKd (GRIP1_3, Q9Y3R0) | pKd (MAGI2_2, Q86UL8) | pKd (LRRC7, Q96NW7) | pKd (HTRA1, Q92743) | pKd (ARHGEF12, Q9NZN5-2) | pKd (RADIL, Q96JH8) | pKd (RHPN1, Q8TCX5) | pKd (TJP1_3, Q07157) | pKd (Inadl_1, Q8NI35) | pKd (SIPA1L2, Q9P2F8) | pKd (ARHGEF11, O15085) | Binder | other results
1 | below the threshold | below the threshold | below the threshold | below the threshold | below the threshold | below the threshold | below the threshold | 3.69 | 4.4 | below the threshold | below the threshold | below the threshold | 3.93 | 3.53 | 3.94 | below the threshold | below the threshold | below the threshold | below the threshold | below the threshold | AEASVACSLC [PTGIR, P43119] | pKd (MPP7, Q5T2T1): below the threshold; pKd (DFNB31_1, Q9P202): below the threshold; pKd (GRIP2_5, Q9C0E4): below the threshold; pKd (NHERF4_2, Q86UT5): below the threshold
2 | below the threshold | below the threshold | below the threshold | below the threshold | below the threshold | below the threshold | below the threshold | below the threshold | 3.8 | below the threshold | below the threshold | below the threshold | below the threshold | 4.62 | below the threshold | 3.82 | below the threshold | below the threshold | below the threshold | 3.98 | LKDDELKTKL [SLCO1A2, P46721] | pKd (MPP7, Q5T2T1): below the threshold; pKd (DFNB31_1, Q9P202): below the threshold; pKd (GRIP2_5, Q9C0E4): below the threshold; pKd (NHERF4_2, Q86UT5): below the threshold
3 | below the threshold | below the threshold | below the threshold | below the threshold | below the threshold | below the threshold | below the threshold | 4.19 | below the threshold | below the threshold | below the threshold | below the threshold | below the threshold | below the threshold | below the threshold | below the threshold | below the threshold | below the threshold | below the threshold | below the threshold | DRIQSCLSDA [SBF1, O95248] | pKd (MPP7, Q5T2T1): below the threshold; pKd (DFNB31_1, Q9P202): below the threshold; pKd (GRIP2_5, Q9C0E4): below the threshold; pKd (NHERF4_2, Q86UT5): below the threshold
